Measured values taken from patent publication US20230218743A1 (IMMUNITYBIO, published 2023).
Substitutions are numbered along the chain they refer to. Like-named read-outs stand apart in the source and are kept apart here.

B1: N-612-004 (antibody, V domains shown)
VH: EVQLVESGGGLVQPGGSLRLSCAASGFTFSSYYMHWVRQAPGKGLEWVSAISGSGGYTYYADSVKGRFTISRDNSKNTLYLQMNSLRAEDTAVYYCARDRDHAYDWGFDVWGQGTLVTVSS
VL: DIQMTQSPSSLSASVGDRVTITCQASQDISNYLNWYQQKPGKAPKLLIYDASNLETGVPSRFSGSGSGTDFTFTISSLQPEDIATYYCQQWADWPLTFGQGTKVEIK
B2: N-612-056 (antibody, V domains shown)
VH: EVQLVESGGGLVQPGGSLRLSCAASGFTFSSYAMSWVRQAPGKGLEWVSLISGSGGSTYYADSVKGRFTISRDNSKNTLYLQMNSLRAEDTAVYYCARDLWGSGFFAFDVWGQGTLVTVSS
VL: B1 VL with W91D, D93G, W94T
B3: 612-056 (scFv, V domains shown)
VH: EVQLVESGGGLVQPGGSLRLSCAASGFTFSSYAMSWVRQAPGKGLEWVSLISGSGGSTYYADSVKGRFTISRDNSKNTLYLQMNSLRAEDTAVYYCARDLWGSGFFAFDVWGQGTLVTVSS
VL: B1 VL with W91D, D93G, W94T
B4: N-612-014 (antibody, V domains shown)
VH: EVQLVESGGGLVQPGGSLRLSCAASGFTFSSYAMTWVRQAPGKGLEWVSYISGSGGGTYYADSVKGRFTISRDNSKNTLYLQMNSLRAEDTAVYYCARDRWASGWLAFDVWGQGTLVTVSS
VL: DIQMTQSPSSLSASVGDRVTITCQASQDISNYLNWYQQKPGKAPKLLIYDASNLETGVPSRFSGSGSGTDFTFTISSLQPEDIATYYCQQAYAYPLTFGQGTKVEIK
B5: N-612-007 (antibody, V domains shown)
VH: EVQLVESGGGLVQPGGSLRLSCAASGFTFSNYAMHWVRQAPGKGLEWVSAISGNGGSTGYADSVKGRFTISRDNSKNTLYLQMNSLRAEDTAVYYCARDRWYVKNAFDVWGQGTLVTVSS
VL: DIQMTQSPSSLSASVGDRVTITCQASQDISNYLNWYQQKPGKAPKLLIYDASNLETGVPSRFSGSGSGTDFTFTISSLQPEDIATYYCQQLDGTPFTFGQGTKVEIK
B6: N-612-002 (antibody, V domains shown)
VH: EVQLVESGGGLVQPGGSLRLSCAASGFTFSSYTMHWVRQAPGKGLEWVSAISGSGGSTYYADSVKGRFTISRDNSKNTLYLQMNSLRAEDTAVYYCARDLFDFWGFDVWGQGTLVTVSS
VL: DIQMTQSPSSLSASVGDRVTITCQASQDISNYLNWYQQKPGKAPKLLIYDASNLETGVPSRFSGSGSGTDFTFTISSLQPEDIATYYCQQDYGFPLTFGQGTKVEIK
B7: N-612-044 (antibody, V domains shown)
VH: EVQLVESGGGLVQPGGSLRLSCAASGFTFSNYAMHWVRQAPGKGLEWVSAISGSGGSTYYADSVKGRFTISRDNSKNTLYLQMNSLRAEDTAVYYCARDLSFWLTYHLASAFDVWGQGTLVTVSS
VL: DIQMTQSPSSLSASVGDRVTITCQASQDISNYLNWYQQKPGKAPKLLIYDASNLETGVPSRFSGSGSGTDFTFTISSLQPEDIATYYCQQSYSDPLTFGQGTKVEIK
B8: N-612-017 (antibody, V domains shown)
VH: EVQLVESGGGLVQPGGSLRLSCAASGFTFSSYAMHWVRQAPGKGLEWVSAIWGSGSNTYYADSVKGRFTISRDNSKNTLYLQMNSLRAEDTAVYYCARGRDLAAFTKTAFDVWGQGTLVTVSS
VL: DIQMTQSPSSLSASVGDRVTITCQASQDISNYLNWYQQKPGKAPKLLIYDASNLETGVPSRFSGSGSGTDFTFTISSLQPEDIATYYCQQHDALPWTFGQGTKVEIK
B9: 612-017 (scFv, V domains shown)
VH: B8 VH
VL: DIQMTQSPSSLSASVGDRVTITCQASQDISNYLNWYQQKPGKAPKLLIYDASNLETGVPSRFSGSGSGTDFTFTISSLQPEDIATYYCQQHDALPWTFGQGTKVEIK

Key:
[1] = target: SARS-CoV-2 Spike protein on live SARS-CoV-2 (SARS-CoV-2, UniProt P0DTC2 14-1273); assay: cell-based or functional assay
[2] = target: T1, RBD-SD1 (SARS-CoV-2, UniProt P0DTC2 319-591)
[3] = target: T1, RBD-SD1; assay: Octet, IgG1 on AHC biosensor
[4] = target: T2, SARS-CoV-2 Spike receptor binding domain, wild-type (SARS-CoV-2, UniProt P0DTC2 319-541); assay: Octet, IgG1 on AHC biosensor
T2 construct: domain: RBD

[5] = target: T1, RBD-SD1; assay: epitope analysis, FIG. 4B
[6] = target: T1, RBD-SD1; remark: listed apart in the source
[7] = target: T1, RBD-SD1; remark: listed apart in the source

| Binder | live SARS-CoV-2 neutralization IC50 [1] | binding result [3] | binding result [4] | other results |
| --- | --- | --- | --- | --- |
| B1 | 0.194 µg/mL |  |  |  |
| B2 | 0.855 µg/mL |  |  |  |
| B3 |  |  |  | Kd [2]: 4.77 nM |
| B4 | 0.00791 µg/mL | no binding (tested: 2x dilution series starting at 100 nM) | no binding (tested: 2x dilution series starting at 100 nM) |  |
| B5 | 0.0452 µg/mL | no binding (tested: 2x dilution series starting at 100 nM) | no binding (tested: 2x dilution series starting at 100 nM) |  |
| B6 |  | no binding (tested: 2x dilution series starting at 100 nM) | no binding (tested: 2x dilution series starting at 100 nM) |  |
| B7 |  | no binding (tested: 2x dilution series starting at 100 nM) | no binding (tested: 2x dilution series starting at 100 nM) |  |
| B8 | 0.0756 µg/mL |  |  | koff [5]: 0.0019 s⁻¹; Kd [6]: 6.19 nM; koff [6]: 0.00627 s⁻¹; kon [6]: 1.01e+06 M⁻¹ s⁻¹ |
| B9 |  |  |  | Kd [7]: 10.2 nM |
